Measurements taken from the supplement of paper PMC10567573.

B1: NECAB1 (parent)
chain: NLDTEELCEYFSQHLGEYENVLAA

Variants of: B1
Test: protein stability index of a GFP-peptide fusion (GPS, HEK-293T) (PSI 1-6); higher = more stable
Settings: c terminus: a fixed tail appended
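Note: lentivirally expressed fusions sorted by FACS into six bins by GFP to DsRed ratio, PSI derived from sequencing read proportions per bin multiplied by bin number.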

Protein stability index: each site, then its substitutions
T4: D 4.33; E 4.15; F 2.32; G 3.91; H 4.26; I 2.41; K 2.69; L 2.15; M 2.66; N 3.62; P 3.56; Q 3.59; R 3.05; S 3.32; V 2.12; W 2.63; Y 2.97
E5: A 1.56; C 1.92; D 3.04; F 1.47; G 1.99; H 2.1; I 1.99; K 1.94; L 1.89; M 1.63; N 2.4; P 3.13; Q 1.97; R 2.13; S 1.93; T 2.4; V 2.1; W 1.98; Y 1.69
E6: A 2.27; C 2.68; D 2.53; F 2.41; G 1.81; H 2; I 2.13; K 2.08; L 1.74; M 1.71; N 2.42; P 3.82; Q 1.64; R 1.8; S 1.92; T 2.34; V 2.38; W 2.23; Y 2.46
L7: A 4.43; C 3.85; D 4.92; E 4.77; F 3.55; G 4.79; H 4.63; I 3.01; K 4.7; M 4.26; N 4.63; P 4.29; Q 4.13; R 4.49; S 4.53; T 4.42; V 4.59; W 3.85; Y 3.94
C8: A 2.98; D 4.39; E 4.36; F 3.26; G 4.56; H 4.07; I 2.52; K 3.9; L 2.86; M 3.41; N 4.18; P 4.44; Q 3.52; R 3.17; S 3.83; T 3.62; V 3.04; W 3.28; Y 3.46
E9: A 1.99; C 2.55; D 3.15; F 1.8; G 2.97; H 2.38; I 2.47; K 2.25; L 1.91; M 1.9; N 2.21; P 3.97; Q 2.05; R 1.97; S 2.04; T 2.3; V 1.93; W 1.77; Y 1.76
Y10: A 4.25; C 4.46; D 4.99; E 4.69; F 3.17; G 4.44; H 4.12; I 3.97; K 4.33; L 4.08; M 4.18; N 4.58; P 4.47; Q 4.67; R 4.08; S 5.13; T 4.59; V 4.24; W 2.22
F11: A 4.18; C 4.03; D 4.87; E 5.25; G 4.55; H 4.26; I 3.59; K 5.08; L 2; M 3.48; N 5.01; P 5.13; Q 4.44; R 5.19; S 4.65; T 4.82; V 3.9; W 3.85; Y 4.33
S12: A 2.59; C 2.53; D 4; E 3.83; F 3.17; G 4; H 2.88; I 2.68; K 2.09; L 1.92; M 1.98; N 3.07; P 4.53; Q 2.55; R 2; T 2.91; V 2.28; W 3.15; Y 2.91
Q13: A 2.5; C 2.06; D 4.13; E 2.83; F 2.27; G 3.3; H 2.32; I 2.19; K 2.36; L 2.08; M 2.06; N 2.89; P 3.71; R 3.25; S 2.87; T 3.27; V 2.7; W 2.1; Y 2.2
H14: A 3.31; C 3.63; D 3.86; E 4.47; F 2.02; G 3.81; I 1.87; K 2.73; L 2.09; M 2.98; N 2.55; P 4.44; Q 3.35; R 2.12; S 3.81; T 4.11; V 3.01; W 1.84; Y 2.19
L15: A 3.36; C 2.92; D 4.63; E 4.45; F 2.94; G 4.38; H 3.91; I 1.97; K 4.02; M 3.07; N 4.48; P 4.55; Q 4; R 3.1; S 3.47; T 3.28; V 2.04; W 2.65; Y 2.93
G16: A 2.24; C 1.88; D 2.29; E 2.04; F 2.27; H 1.48; I 2.14; K 1.81; L 1.9; M 1.99; N 1.95; P 2.03; Q 2.71; R 1.78; S 2.48; T 2.04; V 2.07; W 2.29; Y 1.58
E17: A 2.12; C 2.31; D 2.88; F 2.33; G 2.81; H 1.54; I 2.84; K 1.34; L 2.62; M 2.17; N 2.14; P 2.64; Q 1.66; R 2.76; S 2.99; T 2.51; V 2.33; W 2.11; Y 2.65
Y18: A 4.2; C 4.03; D 5.13; E 5.13; F 2.31; G 4.46; H 4.47; I 2.07; K 4.71; L 2.3; M 3.6; N 4.27; P 4.28; Q 4.61; R 4.21; S 4.56; T 4.37; V 3.14; W 1.8
E19: A 1.66; C 1.83; D 3.98; F 1.97; G 2.34; H 1.97; I 4.56; K 2.67; L 1.82; M 2.18; N 2.87; P 2.91; Q 2.4; R 1.84; S 2.11; T 2.07; V 1.53; W 1.82; Y 1.93
N20: A 2.03; C 2.05; D 2.71; E 2.74; F 1.66; G 3.22; H 2.67; I 1.59; K 1.94; L 1.23; M 1.93; P 2.32; Q 2.14; R 2.25; S 3.05; T 1.78; V 4.33; W 2.03; Y 3.07
V21: A 2.9; C 3.01; D 4.86; E 4.2; F 2.08; G 4.32; H 3.14; I 1.83; K 2.07; L 2.76; M 1.88; N 4.05; P 4.46
